Consider one molecule from patent US20110052677A1 (RESEARCH DEVELOPMENT FOUNDATION, published 2011).

The test addresses T1, native SRPX2 of tEnd1.V^high mouse angiogenic endothelioma cells (mouse, UniProt Q8R054 26-468).
T1 construct: Endogenous protein from a mouse endothelioma cell line; also called native SPRXb 2; Sushi repeat-containing protein, X-linked, 2
T1 sequence (looked up): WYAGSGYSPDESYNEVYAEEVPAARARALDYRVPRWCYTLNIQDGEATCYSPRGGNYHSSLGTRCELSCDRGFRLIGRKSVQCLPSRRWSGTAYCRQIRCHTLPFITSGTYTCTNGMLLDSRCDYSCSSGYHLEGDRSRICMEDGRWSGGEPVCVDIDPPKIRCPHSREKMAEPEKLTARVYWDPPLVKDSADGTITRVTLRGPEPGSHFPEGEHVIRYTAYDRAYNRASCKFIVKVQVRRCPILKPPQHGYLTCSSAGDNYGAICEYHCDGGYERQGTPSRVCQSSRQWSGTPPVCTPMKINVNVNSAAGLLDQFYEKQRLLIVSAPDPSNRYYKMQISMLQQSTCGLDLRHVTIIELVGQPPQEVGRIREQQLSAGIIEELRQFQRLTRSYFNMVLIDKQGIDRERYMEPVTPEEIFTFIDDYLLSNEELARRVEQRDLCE
Briefly: anti-uPAR immunoprecipitate from tEnd1.V^high lysate, blot re-probed with rabbit anti-SRPX2 antibody. As for the experimental part:
Pull down assay of SRPX2 by uPAR—The tEnd1.V^high cells were cell surface biotinylated (0.5 mg/ml of biotin in DPBS) for 15 min, blocked with 10% FCS in PBS and lysed in lysis buffer with addition of 0.5% CHAPS and proteinase inhibitors (Sigma). Pre-clearing was preformed subsequently with the protein G beads (40 μl beads/1 ml lysate) (Protein G Sepharose 4 fast flow, General Electrics) for 3×5 min at RT. Immuno-precipitation was performed by adding sheep anti-uPAR antibodies, precipitated with protein G beads and eluted with a lysis buffer. Immunoblots were preformed with sheep anti-uPAR antibodies and detected by anti-sheep HRP labeled antibodies and visualized by ECL.

B1: vascular urokinase-type plasminogen activator receptor (uPAR) of tEnd1.V^high cells (receptor, mouse, UniProt P35456 24-298, looked up)
chain: LQCMQCESNQSCLVEECALGQDLCRTTVLREWQDDRELEVVTRGCAHSEKTNRTMSYRMGSMIISLTETVCATNLCNRPRPGARGRAFPQGRYLECASCTSLDQSCERGREQSLQCRYPTEHCIEVVTLQSTERSLKDEDYTRGCGSLPGCPGTAGFHSNQTFHFLKCCNYTHCNGGPVLDLQSFPPNGFQCYSCEGNNTLGCSSEEASLINCRGPMNQCLVATGLDVLGNRSYTVRGCATASWCQGSHVADSFPTHLNVSVSCCHGSGCNSPTG
notes: whole, on cells; Native GPI-linked receptor, immunoprecipitated from cell lysate after cell-surface biotinylation; Species is inferred from the mouse cell line; also called vascular uPAR; native uPAR
For the molecule B1, the binding result was “binds”.
